# T1: VapBC complex (VapB:His6-VapC), hetero-octamer VapB4C4 (Shigella flexneri (plasmid pMYSH6000), UniProt O06663;O06662 1-75;1-132)
# T1 sequence 1: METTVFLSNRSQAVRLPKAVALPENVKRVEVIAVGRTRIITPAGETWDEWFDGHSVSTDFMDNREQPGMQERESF
# T1 sequence 2: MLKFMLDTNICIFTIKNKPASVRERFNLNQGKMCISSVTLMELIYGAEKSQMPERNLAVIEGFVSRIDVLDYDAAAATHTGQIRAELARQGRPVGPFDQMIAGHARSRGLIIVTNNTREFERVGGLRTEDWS
# B1: DNA III (dsDNA)
# DNA 1: ATAAACGTATATCCCTTTGACATATCCCGG
# DNA 2: CCGGGATATGTCAAAGGGATATACGTTTAT
# B2: Shigella flexneri VapC toxin (MvpT) (natural protein)
# chain: T1 sequence 2
# notes: Untagged in this construct, purified through His6-VapB; also called PIN domain
# B3: Shigella flexneri VapB antitoxin (His6-VapB) (natural protein, UniProt O06663 1-75, looked up)
# chain: T1 sequence 1
# notes: VapB antitoxin of the vapBC locus of the Shigella flexneri 2a virulence plasmid pMYSH6000; gene optimized for expression; No cleavage of the tag is described; In the assembly four copies of VapB stand with four of VapC (VapB4C4)
# Tests used:
# [1] = target: T1, VapBC complex (VapB:His6-VapC), …; test: EMSA; single shift, highest affinity site; 2.5 ng/ul VapBC, 0.1 mg/ml salmon sperm DNA; settings: protein: recombinant; tags: His6 on VapC; chain copies: 4;4; label: 5'-32P on SF-EMSA2-f; blunt
# [2] = target: the molecule itself; test: cross-linking; purified VapBC complex 1 mg/ml in 100 mM sodium borate pH 9.1 with dimethyl superimidate (DMSI), aliquots after 5-120 min, 15% Coomassie-stained SDS-PAGE
# [3] = target: the molecule itself; test: crystal structure; His6-VapB:VapC complex, 7 mg/ml; crystals in 0.1 M Bis-Tris pH 5.5, 1 M ammonium sulfate, 0.5% (v/v) PEG 3350, 19 °C; 2.7 Å; four copies of each protein in the asymmetric unit (VapB4C4)
Binder,binding result [1],stoichiometry N [2],stoichiometry N [3]
B1,binds,–,–
B2,–,4,–
B3,–,4,2
